Source: paper PMC10958042

B1: ATGL (PNPLA2, patatin-like phospholipase domain-containing protein 2), human, full length / perilipin-5, mouse (mPlin5) (parent)
chain 1: MFPREKTWNISFAGCGFLGVYYVGVASCLREHAPFLVANATHIYGASAGALTATALVTGVCLGEAGAKFIEVSKEARKRFLGPLHPSFNLVKIIRSFLLKVLPADSHEHASGRLGISLTRVSDGENVIISHFNSKDELIQANVCSGFIPVYCGLIPPSLQGVRYVDGGISDNLPLYELKNTITVSPFSGESDICPQDSSTNIHELRVTNTSIQFNLRNLYRLSKALFPPEPLVLREMCKQGYRDGLRFLQRNGLLNRPNPLLALPPARPHGPEDKDQAVESAQAEDYSQLPGEDHILEHLPARLNEALLEACVEPTDLLTTLSNMLPVRLATAMMVPYTLPLESALSFTIRLLEWLPDVPEDIRWMKEQTGSICQYLVMRAKRKLGRHLPSRLPEQVELRRVQSLPSVPLSCAAYREALPGWMRNNLSLGDALAKWEECQRQLLLGLFCTNVAFPPEALRMRAPADPAPAPADPASPQHQLAGPAPLLSTPAPEARPVIGALGL
chain 2: MDQRGEDTTLAPHSRMSGDQTAQDPGSSLGELDQQNVVNRVVALPLVKATCTAVSSAYNSAKDRHPLLGSACRLAEHCVCSVTTCALDHAQPLLEHLQPQLATVNDLACRGLDKLEEKLPFLQQPSDMVVTSAKDTVAKSVTGMVDLAQRGRRWSGELRRSMSQAMDMVLGKSEKLVDRFLPMTEAELAVLAAEAEGPEVGTVEEQRQQQGYFVRLGSLSARLRHLAYEHSLGKLRQSKHRTQEMLAQLQETLELIQHMQRGASPSPTFHPPKTQELWGSWSPCLENGRSHSEVELETLALSRSLTLELQNAVDALAGCVRGLPPSAQAKVAEVQRSVDALQATFADAHCLGDVAPTALAEGRGSVARAHACVDEFLDLVLRAMPLPWLVGPFAPILVEQSEPLINLATCVDEVVGDPDPRWAHMDWPAQKRAWEAESADPGGQEAEPPRGQGKHTMMPELDF
B2: ATGL (PNPLA2, patatin-like phospholipase domain-containing protein 2), human, full length / G0S2 (G0/G1 switch protein 2), human (parent)
chain 1: B1 chain 1
chain 2: METVQELIPLAKEMMAQKRKGKMVKLYVLGSVLALFGVVLGLMETVCSPFTAARRLRDQEAAVAELQAALERQALQKQALQEKGKQQDTVLGGRALSNRQHAS

Variants of: B1
Assay: LUMIER: Protein A-ATGL variant and firefly luciferase-partner co-expressed in HEK293T, lysates immunoprecipitated on IgG-coated plates, co-precipitated partner measured as luciferase luminescence
Conditions: with perilipin-5, mouse (mPlin5), transient co-transfection, IgG-coated LUMITRAC plates, 2 h at 4 °C, three PBS washes, Bright-Glo luciferase reagent, triplicates per assay, two …, parent: 0.15, not graded, scale: log2 fold change of co-immunoprecipitated luminescence relative to wild-type ATGL within each experiment

| Variant | screen value |
| --- | --- |
| chain 1 K275A | -0.0642 |
| chain 1 L261E | -0.706 |
| chain 1 F348E | 0.152 |
| chain 1 N39E | -0.463 |
| chain 1 K92L | 0.0605 |
| chain 1 P103K | -0.303 |
| chain 1 L62K | -0.0604 |
| chain 1 L62A | -0.2 |
| chain 1 G59L | -0.841 |
| chain 1 G66A | -0.448 |
| chain 1 G66L | -0.614 |
| chain 1 G153K | -1.05 |
| chain 1 G153A | -0.676 |
| chain 1 P156K | -0.669 |
| chain 1 L102K | -0.208 |
| chain 1 P86K | -1.17 |
| chain 1 L159A | -1.17 |
| chain 1 N180L | -0.751 |
| chain 1 A434L | 0.18 |
| chain 1 G16K | 0.284 |
| chain 1 I70A | -1.37 |
| chain 1 I70K | -0.962 |
| chain 1 H109E | 0.319 |
| chain 1 P258L | -0.695 |
| chain 1 A104E | -0.161 |
| chain 1 L178A | -0.0602 |
| chain 1 E314A | 0.0215 |
| chain 1 E368A | -0.0206 |
| chain 1 A453E | 0.182 |
| chain 1 E125L | 0.00114 |

Continued, values first:

| screen value | Variant |
| --- | --- |
| -0.912 | chain 1 V328A |
| -0.403 | chain 1 S87E |
| -0.249 | chain 1 S87A |
| -0.296 | chain 1 R163K |
| -0.404 | chain 1 R95L |
| 0.211 | chain 1 R95K |
| -0.305 | chain 1 R113L |
| 0.649 | chain 1 R113K |
| -0.213 | chain 1 R351L |
| 0.105 | chain 1 R329E |
| -0.294 | chain 1 V127L |
| 0.184 | chain 1 Y415A |
| -0.363 | chain 1 S106K |
| 0.0372 | chain 1 T41A |
| -0.185 | chain 1 Q140A |
| 0.011 | chain 1 Q140K |
| -0.512 | chain 1 Q396A |

Same assay, conditions: with perilipin-5, mouse (mPlin5), transient co-transfection, IgG-coated LUMITRAC plates, 2 h at 4 °C, three PBS washes, Bright-Glo luciferase reagent, triplicates per assay, two …, parent: 0.46, not graded, scale: log2 fold change of co-immunoprecipitated luminescence relative to wild-type ATGL within each experiment

| Variant | screen value |
| --- | --- |
| chain 1 K275A | -0.483 |
| chain 1 L261E | -0.846 |
| chain 1 F348E | -0.58 |
| chain 1 N39E | -0.463 |
| chain 1 K92L | 0.185 |
| chain 1 P103K | -0.674 |
| chain 1 L62K | 0.482 |
| chain 1 L62A | -0.0199 |
| chain 1 G59L | -0.187 |
| chain 1 G66A | 0.0231 |
| chain 1 G66L | -0.664 |
| chain 1 G153K | -0.867 |
| chain 1 G153A | -0.506 |
| chain 1 P156K | -1.08 |
| chain 1 L102K | -0.846 |
| chain 1 P86K | -1.16 |
| chain 1 L159A | -0.435 |
| chain 1 N180L | -0.918 |
| chain 1 A434L | 0.786 |
| chain 1 G16K | 0.354 |
| chain 1 I70A | -0.876 |
| chain 1 I70K | -0.924 |
| chain 1 H109E | -0.248 |
| chain 1 P258L | -1.24 |
| chain 1 A104E | -0.459 |
| chain 1 L178A | -0.257 |
| chain 1 E314A | 0.421 |
| chain 1 E368A | -0.0325 |
| chain 1 A453E | 0.52 |
| chain 1 E125L | -0.226 |

Further lines, results first:

| screen value | Variant |
| --- | --- |
| -0.985 | chain 1 V328A |
| -0.318 | chain 1 S87E |
| -0.228 | chain 1 S87A |
| 0.00396 | chain 1 R163K |
| -0.391 | chain 1 R95L |
| -0.228 | chain 1 R95K |
| 0.191 | chain 1 R113L |
| 0.667 | chain 1 R113K |
| -0.456 | chain 1 R351L |
| -0.51 | chain 1 R329E |
| -0.0973 | chain 1 V127L |
| 0.247 | chain 1 Y415A |
| -0.539 | chain 1 S106K |
| 0.0895 | chain 1 T41A |
| -0.0429 | chain 1 Q140A |
| -0.224 | chain 1 Q140K |
| -0.623 | chain 1 Q396A |

Variants of: B2
Assay: as above
Conditions: with G0S2 (G0/G1 switch protein 2), transient co-transfection, IgG-coated LUMITRAC plates, 2 h at 4 °C, three PBS washes, Bright-Glo luciferase reagent, triplicates per assay, two …, parent: 0.26, not graded, scale: log2 fold change of co-immunoprecipitated luminescence relative to wild-type ATGL within each experiment

| Variant | screen value |
| --- | --- |
| chain 1 G16K | -0.435 |
| chain 1 N180L | -1.96 |
| chain 1 G153A | -1.31 |
| chain 1 P86K | -0.894 |
| chain 1 I70K | -1.77 |

The remaining lines, values ahead:

| screen value | Variant |
| --- | --- |
| 0.0979 | chain 1 Q140A |
| 0.195 | chain 1 Q140K |
| -0.121 | chain 1 S158A |
| -0.00445 | chain 1 Y415A |
| -0.922 | chain 1 S106K |
| -0.559 | chain 1 S87E |

Same assay, conditions: with G0S2 (G0/G1 switch protein 2), transient co-transfection, IgG-coated LUMITRAC plates, 2 h at 4 °C, three PBS washes, Bright-Glo luciferase reagent, triplicates per assay, two …, parent: 0.56, not graded, scale: log2 fold change of co-immunoprecipitated luminescence relative to wild-type ATGL within each experiment

| Variant | screen value |
| --- | --- |
| chain 1 G16K | -0.755 |
| chain 1 N180L | -1.94 |
| chain 1 G153A | -1.25 |
| chain 1 P86K | -0.783 |
| chain 1 I70K | -2.22 |

Other lines, results leading:

| screen value | Variant |
| --- | --- |
| 0.734 | chain 1 Q140A |
| -0.175 | chain 1 Q140K |
| 0.343 | chain 1 S158A |
| -0.27 | chain 1 Y415A |
| -1.29 | chain 1 S106K |
| -1.39 | chain 1 S87E |
